According to patent US20260167712A1, “INHIBITORY ANTIBODIES AGAINST GLUT1” (ICOSAGEN CELL FACTORY OÜ, priority 2022, published 2026):
Changes are numbered by the printed parent chain. “Also recorded” adds a separate entry of the source.

T1: HEK-293-ALL cells transfected with human SLC2A1 (Homo sapiens, UniProt P11166)
T1 construct: expressed in transfected cells; host or cells: HEK-293-ALL
T1 sequence (P11166 1-492): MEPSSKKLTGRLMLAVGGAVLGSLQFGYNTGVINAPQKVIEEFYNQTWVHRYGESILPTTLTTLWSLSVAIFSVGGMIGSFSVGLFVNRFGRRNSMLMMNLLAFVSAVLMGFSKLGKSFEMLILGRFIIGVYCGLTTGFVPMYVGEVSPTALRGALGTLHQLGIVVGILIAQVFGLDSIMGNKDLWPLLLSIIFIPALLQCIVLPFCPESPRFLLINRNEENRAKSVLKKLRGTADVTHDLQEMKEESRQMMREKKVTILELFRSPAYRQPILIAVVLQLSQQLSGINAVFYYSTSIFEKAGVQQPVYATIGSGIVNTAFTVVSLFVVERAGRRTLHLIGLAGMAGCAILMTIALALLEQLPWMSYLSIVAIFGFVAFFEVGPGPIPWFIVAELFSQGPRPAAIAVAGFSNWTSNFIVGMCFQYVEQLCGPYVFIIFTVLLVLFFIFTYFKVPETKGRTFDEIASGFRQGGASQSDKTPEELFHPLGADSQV

T2: SLC2A1 pseudotyped VLPs (UniProt P11166 1-492)
T2 chain: T1 sequence (P11166 1-492)

T3: SLC2A1 pseudotyped VLPs (Homo sapiens, UniProt P11166)
T3 sequence (P11166 1-492): T1 sequence (P11166 1-492)

B1: 5G5 #30 (antibody, V domains shown)
VH: AVTLDESGGGLQTPGGALSLVCKASGFTFSSHAIFWVRQAPDKGLEFVAAISSSSGSWTAYATVVKGRATISRDNGQSTVRLQLNNLRAEDTGTYYCAKAAGSACCYAGSIDAWGHGTEVIVSS
VL: ALTQPSSVSANPGETVKITCSGGSGSSYYGWYQQKSPGSAPVTVIYYDDKRPSDIPSRFSGSKSGSTATLTITGVQVEDEAVYYCGTGDGSIAIFGAGTTLTVL
B2: 1G2 #9 (antibody, V domains shown)
VH: AVTLDESGGGLQTPGGALSLVCKASGFTFSTKGMGWVRQTPGKGLEWVAGISSMRRYTYYAPAVKGRATISRDNGQSTVRLQLSSLRAEDSGTYYCARDATYCSWTTSTCGWSGGTIDAWGHGTEVIVSS
VL: ALTQPSSVSANPGETVKITCSGSSGSYGWYQQKSPGSAPVTVIYWDDERPSGIPSRFSGSASGSTATLTITGVQAEDEAVYFCGSIDSSVGYVGIFGAGTTLTVL
B3: 2A2 #12 (antibody, V domains shown)
VH: B2 VH with A24G, G35M, T40A, R55S, T78A, S91T, T107A
VL: ALTQPSSVSANPGETVKITCSGGYSYYGTYYYSWYQQKSPGSAPVTLIYRNDKRPSDIPSRFSGSGSGSTSTLTITGVQAEDEAVYFCGSYDSSDSGIFGAGTTLTVL
B4: 7C3 #39 (antibody, V domains shown)
VH: B2 VH
VL: ALTQPSSVSANLGGTVKITCSGGGSSSYYGWYQQKSPGSAPVTVIYGNDRRPSDIPSRFSGSASGSTATLTITGVQAEDEAVYFCGSADSSDSGSGIFGAGTTLTVL

Key:
[1] = target: T1, HEK-293-ALL cells transfected with human SLC2A1; test: 2-Deoxyglucose uptake assay (Glucose Uptake-Glo); format: cell-based; conditions: 2-hour incubation, 0.35 nM to 6.89 μM, 1 mM 2DG for 20 min, FIG. 4
Experimental: To evaluate if the described anti-SLC2A1 antibodies inhibit glucose uptake, a commercial Glucose Uptake-Glo Assay kit (Promega) was utilized according to manufacturer's instructions. In short, HEK-293-ALL cells were transfected with human SLC2A1 expression plasmid and were incubated at 37° C. overnight in the presence of 5% CO2. Cells were washed with 0.5% BSA PBS twice and 7000 cells were plated per well into white clear bottom 96-well plates in 0.5% BSA PBS in the presence of 0.35 nM to 6.89 μM anti-SLC2A1 antibodies or glucose uptake inhibitor BAY-876 (CaymanChem). Cells were incubated for 2 hours at room temperature. Glucose uptake was initiated by the addition of 1 mM 2-deoxyglucose (2DG) and was allowed to proceed for 20 min at 37° C. in the presence of 5% CO2. After adding STOP and neutralization reagents included in the kit, luminescence was measured using GloMax Explorer microplate reader (Promega). Nonspecific luminescence was measured in lysates from cells without (2DG) being added. Data was normalized to nonspecific luminescence and to the average value of luminescence in the presence of no inhibitors.

MCF7 breast cancer cells = test: Cell proliferation inhibition assay (Incucyte), MCF7; format: cell-based; conditions: for MCF7 cell growth (confluence), single agent: alone, Incucyte; for MCF7 cell growth in combination with phenformin: co-treatment with phenformin, FIGS. 7 and 9
Experimental: (§1) Incucyte S3 Live cell analysis instrument and Cell-by-Cell analysis software module (Sartorius) were used to evaluate the effect of anti-SLC2A1 antibodies on cancer cell proliferation label-free (FIGS. 5-11). MCF7, PC3 or PANC1 or MIAPACA2 cells were plated on flat bottom tissue culture 96-well plate in […] medium (Ximbio) supplemented with 2.5% FBS. Cells were incubated overnight and 0.02 nM to 13 μM anti-SLC2A1 antibodies, anti-HEL isotype control, PBS or BAY-876 were added to the cells alone or in combination with metformin (CaymanChem), phenformin (Sigma Aldrich) or IACS-010759 (CaymanChem). Cell confluence or object count was measured for 24 to 96 hours with Incucyte S3 and normalized to timepoint 0 h or 4h. anti-SLC2A1 antibodies inhibit cancer cell proliferation alone and especially in combination with complex-I inhibitors metformin, phenformin and IACS-010759. Exemplary antibodies 1G2 #9, 2A2 #12, 2E5 #22, 5G5 #30, 6F12 #33, 7C3 #39 and R14 #54 were used in proliferation assays.

[2] = tested on: MIAPACA2 pancreatic cancer cell line; test: Cell proliferation inhibition assay (Incucyte), MIAPACA2; format: cell-based; conditions: alone, FIG. 11
Experimental: as §1

[3] = tested on: PC3 prostate cancer cell line; test: Cell proliferation inhibition assay (Incucyte), PC3; format: cell-based; conditions: alone, FIG. 11
Experimental: as §1

SLC2A1 pseudotyped VLPs [4] = target: T2, SLC2A1 pseudotyped VLPs; test: ELISA
SLC2A1 pseudotyped VLPs [5] = target: T3, SLC2A1 pseudotyped VLPs; test: ELISA-based SLC2A1 VLP binding assay; conditions: 5 μg/mL VLP coating, FIG. 1
Experimental: An ELISA-based VLP binding assay was carried out to compare the EC50 values of antibody clones (FIG. 1). Similarly, ELISA based VLP binding assay was performed to compare the binding of the antibodies to different glucose transporters (FIG. 3). MaxiSorp™ high-capacity binding ELISA plate (Thermo Fisher Scientific, US) were coated with 5 μg/mL SLC2A1, SLC2A2, SLC2A3, SLC2A4 pseudotyped VLPs or MOCK VLPs in PBS overnight. The plate was washed and blocked for 1 h with 0.05% Tween 20, 2% BSA in PBS. Serial dilutions of antibodies were incubated on a washed plate for 1 hour, followed by a 1-hour incubation with goat anti-human IgG horse radish peroxidase (HRP) conjugated (Invitrogen) antibody. TMB (3,3′,5,5′-Tetramethylbenzidine) Solution VII (Biopanda Diagnostics) was used as a substrate for HRP and 0.5 M H2SO4 was used as stop solution. After every step, the wells were washed with 0.05% Tween 20, 0.1% Proclin 300 PBS solution. Absorption at 450 nm was measured with Thermo Scientific™ Multiskan™ FC Microplate Photometer. Exemplary wise used antibodies 1G2 #9, 2A2 #12, 2E5 #22, 5G5 #30, 6F12 #33, 7C3 #39 all bound SLC2A1 VLPs with low nanomolar EC50 values (FIG. 1).

Molecule | MCF7 cell growth (confluence), single agent (MCF7 breast cancer cells) | EC50 (SLC2A1 pseudotyped VLPs [4]) [nM] | EC50 of binding to SLC2A1 VLPs (SLC2A1 pseudotyped VLPs [5]) | MCF7 cell growth in combination with phenformin (MCF7 breast cancer cells) | other results
Cc1c(NC(=O)c2cc(C(N)=O)nc3cc(F)ccc23)c(C(F)(F)F)nn1Cc1ccc(C#N)cc1 [BAY-876, reference compound] | – | – | – | – | glucose (2-deoxyglucose) uptake [1]: strong concentration dependent decrease
Cc1nc(-c2nc(-c3ccc(OC(F)(F)F)cc3)no2)nn1Cc1cccc(N2CCC(S(C)(=O)=O)CC2)c1 [IACS-010759, reference compound] | did not influence cell growth | – | – | – | MIAPACA2 cell growth, single agent [2]: inhibited; PC3 cell growth, single agent [3]: inhibited
CN(C)C(=N)N=C(N)N [Metformin, metformin, reference compound] | did not influence cell growth | – | – | – | –
[H]/N=C(/N)N/C(=N/[H])NCCc1ccccc1 [phenformin, reference compound] | did not influence cell growth; also recorded: No growth inhibition | – | – | – | –
B1 | – | 1.2 | low nanomolar | completely inhibit; also recorded: drastically inhibited; also recorded: most potent growth inhibitors | MCF7 cell growth in combination with IACS-010759 (MCF7 breast cancer cells; co-treatment with IACS-010759, FIG. 8): drastically inhibited; MCF7 cell growth in combination with metformin (MCF7 breast cancer cells; co-treatment with metformin, FIG. 6): drastically inhibited
B2 | – | 4.1 | low nanomolar | No growth inhibition | –
B3 | – | 2.9 | low nanomolar | No growth inhibition | –
B4 | – | 1.4 | low nanomolar | completely inhibit; also recorded: most potent growth inhibitors | –
